Test results reported in paper PMC9037272.

Assays:
Assay in all cases: FRET or BRET; FRET efficiency by flow cytometry in co-transfected HEK-293T cells 24 h post-transfection; donor mCerulean fusion, acceptor mEYFP fusion; Cer alone as negative control
[1] = target: EYFP-Hsp26 (Drosophila melanogaster) (UniProt P02517)
[2] = target: EYFP-Pen (Drosophila melanogaster) (UniProt P52295)
[3] = target: EYFP-Tsn (Drosophila melanogaster)

UniProt P52295, sequence (P52295 whole entry): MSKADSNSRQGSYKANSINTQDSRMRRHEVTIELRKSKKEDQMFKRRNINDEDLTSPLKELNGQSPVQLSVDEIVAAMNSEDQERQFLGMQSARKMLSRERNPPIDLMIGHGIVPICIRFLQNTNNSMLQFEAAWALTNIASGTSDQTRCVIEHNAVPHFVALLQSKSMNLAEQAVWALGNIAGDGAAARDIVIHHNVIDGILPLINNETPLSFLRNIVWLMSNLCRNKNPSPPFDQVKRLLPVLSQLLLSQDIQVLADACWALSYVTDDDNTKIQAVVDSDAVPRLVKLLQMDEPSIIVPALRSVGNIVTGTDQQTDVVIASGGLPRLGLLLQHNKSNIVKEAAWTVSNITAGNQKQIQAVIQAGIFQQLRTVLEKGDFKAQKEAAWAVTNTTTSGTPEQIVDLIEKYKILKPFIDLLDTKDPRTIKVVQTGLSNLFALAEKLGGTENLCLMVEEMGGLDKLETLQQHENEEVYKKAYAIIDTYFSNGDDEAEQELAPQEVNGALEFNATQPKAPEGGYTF
UniProt P02517, sequence (P02517 whole entry): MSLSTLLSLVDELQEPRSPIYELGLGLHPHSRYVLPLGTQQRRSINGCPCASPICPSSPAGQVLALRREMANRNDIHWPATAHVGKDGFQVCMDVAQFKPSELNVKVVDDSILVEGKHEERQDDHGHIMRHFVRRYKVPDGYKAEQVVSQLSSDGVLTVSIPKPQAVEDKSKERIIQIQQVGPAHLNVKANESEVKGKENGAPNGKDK

FRET efficiency [1]: 13.8% | FRET efficiency [2]: 7.9% | FRET efficiency [3]: 3.8%
Substance: Cer-NtFT4 (mCerulean fusion of NtFT4) (natural protein)
